What was measured:
[1] = substrate: C[C@H](CCC(=O)O)[C@H]1CC[C@H]2[C@@H]3CC[C@@H]4C[C@H](O)CC[C@]4(C)[C@H]3C[C@H](O)[C@]12C; experiment: purified protein; conditions: oxidation, 10 mM MOPS pH 7.0, 37 °C
[2] = substrate: C[C@H](CCC(=O)O)[C@H]1CC[C@H]2[C@@H]3CC[C@@H]4CC(=O)CC[C@]4(C)[C@H]3C[C@H](O)[C@]12C; experiment: purified protein; conditions: reduction, 10 mM MOPS pH 7.0, 37 °C

B1: Elen_0690 (Eggerthella lenta DSM 2243) (protein)
chain: MGIYVITGATSGIGAKTAEILRERGHEVVNIDLNGGDINANLATKEGRAGAIAELHERFPEGIDAMICNAGVSGGKVPISLIISLNYFGATEMARGVFDLLEKKGGSCVVTSSNSIAQGAARMDVAGMLNNHADEDRILELVKDVDPAIGHVYYASTKYALARWVRRMSPDWGSRGVRLNAIAPGNVRTAMTANMLPEQRAAMEAIPVPTHFGEEPLMDPVEIANAMAFIASPEASGINGVVLFVDGGTDALLNSEKVY
Km ([1]; cofactor NAD+): 1280 ± 88 µM | kcat ([1]; cofactor NAD+): 4.85 ± 0.117 s⁻¹

B2: Rumgna_02133 (Mediterraneibacter gnavus ATCC 29149) (protein)
chain: MFMMLKNKVAIVTGGTRGIGFAVVKKFIENGAAVSLWGSRQETVDQALEQLKELYPDAKISGKYPSLKDTAQVTAMINQVKEEFGAVDILVNNAGISQSTSFYNYQPEEFQKIVDLNVTAVFNCSQAAAKIMKEQGGGVILNTSSMVSIYGQPSGCGYPASKFAVNGLTKSLARELGCDNIRVNAVAPGITRTDMVAALPEAVIKPLIATIPLGRVGEPEDIANAFLFLASDMASYVTGEILSVDGAARS
Km ([1]; cofactor NADP+): 369 ± 30 µM | kcat ([1]; cofactor NADP+): 1.66 ± 0.0333 s⁻¹

B3: Elen_1325 (Eggerthella lenta DSM 2243) (protein)
chain: MSEARHNPVLAGQTAVITGGASGIGKSIVQRFLEAGASCLAADLNEEALAALKQELAEYGDKLDVVKVDVSNRDDVEGMVDRAVQTFGQMDIIVNNAGIMDNLLPIAEMDDDVWERLMKVNLNSVMYGTRKAVRYFMERGEGGVIINTASLSGLCAGRGGCAYTASKFAVVGLTKNVAFMYADTGIRCNAICPGNTQTNIGVGMRQPSERGMAKATTGYAGATRSGTPEEISAAAAFLASDQAGFINGETLTIDGGWSAY
Km ([2]; cofactor NADH): 2630 ± 365 µM | kcat ([2]; cofactor NADH): 29.2 ± 1.1 s⁻¹

B4: Rumgna_00694 (Mediterraneibacter gnavus ATCC 29149) (protein)
chain: MNFGGFIMGRFDEKIMLVTGATSGIGRAVAIRAAKEGATVVAVGRNEERGAAVVAAMEEAGGKGEFMKCDVSNKDAVKALFAEIQEKYGKLDVAVNNAGIVGASKTVEELEDDDWFQVIDANLNSCFFCCREEVKLMQPSGGAIVNVSSVAGMRGFPSAAAYVASKHAVSGLTKAVAVDYATKGITCNAICPAGTDTPLTERSSADIKTRMAEIAAQGKDPMEWLKNSMLSGKTETLQKKNATPEEQAATILYFASDEARHITGSIVASDGGFTTY
Km ([2]; cofactor NADPH): 56.0 ± 5.6 µM | kcat ([2]; cofactor NADPH): 157 ± 4.53 s⁻¹

B5: Elen_0198 (Eggerthella lenta DSM 2243) (protein)
chain: MYDDLKGKTVVVTGSSKGLGAAMARRFGAEGMNVVANYRSDEEGARETVRAIEEAGGAAAAVQADVSKNECVDALFDAAMFSFGGVDIWVNNAGIEVASPSDRKSIEEWQRVIDVNLTGVFAGCRRAIDHFLDRKMPGVIINLSSVHEIIPWPHFADYAASKAGVGMLTKTLALEYADRGIRVNAIAPGAMNTPINAEKFADPEARAATERLIPMGYVGAPEDVAAAAAWLASDQASYVTGTTLFVDGGMTLYPGFQFGQG
Km ([2]; cofactor NADH): 2660 ± 539 µM | kcat ([2]; cofactor NADH): 9.73 ± 0.583 s⁻¹

From publication PMC4543561
